Assay results as given in the DeepSol protein solubility set.

Assay: soluble on expression in E. coli; label from the status in PepcDB or PDB records

| Sequence | soluble on expression in E. coli |
| --- | --- |
| MGSDKIHHHHHHMKISFPHMGYSYIAFKWLVNHLGHECIVPPEPSKKTLDLGVRYSPEFACIPFKILMGTYLEVAEKGAEIILTSGGMGPCRAGYYWVMHQYILDEIGKKVKVIAFEPPLCDLRDFWRKLHRLRVSGGLSVKAFIQVLKVAWEKIKAIDDMEMQSHSIRPYEEKRGDTTRALWKALEFVDEANGEDEVNEARQEGLKVLQGVRRDENRDPLKIGIIGEIYVVLEPSANHYLQIMLGEMGVYTDRSIYLSSYTRKNTIVNLEGDIFQVARPYLNEAPIGGHGVNSIGETILYARHGFDGVVQLAPFACIPEIVAKSIIPAVSRDFNIPVLTLFIDEQTGKAGVQTRLEAFVDLLEKRREHKRQRERWAI | not soluble |
| MIMSEMITRQQVTSGETIHVRTDPTACIGSHPNCRMFIDSLTIAGEKLDKNIVAIDGGEDVTKADSATAAASVIRMSITPGSINPTISITLGVLIKSNVRTKIEEKVSSILQASATDMKIKLGNSNKKQEYKTDEAWGIMIDLSNLELYPISAKAFSISIEPTELMGVSKDGMRYHIISIDGLTTSQGSLPVCCAASTDKGVAKIGYIAAA | soluble |
| MAHHHHHHGTEKTPDDVFKLAKDEKVEYVDVRFCDLPGIMQHFTIPASAFDKSVFDDGLAFDGSSIRGFQSIHESDMLLLPDPETARIDPFRAAKTLNINFFVHDPFTLEPYSRDPRNIARKAENYLISTGIADTAYFGAEAEFYIFDSVSFDSRANGSFYEVDAISGWWNTGAATEADGSPNRGYKVRHKGGYFPVAPNDQYVDLRDKMLTNLINSGFILEKGHHEVGSGGQAEINYQFNSLLHAADDMQLYKYIIKNTAWQNGKTVTFMPKPLFGDNGSGMHCHQSLWKDGAPLMYDETGYAGLSDTARHYIGGLLHHAPSLLAFTNPTVNSYKRLVPGYEAPINLVYSQRNRSACVRIPITGSNPKAKRLEFRSPDSSGNPYLAFSAMLMAGLDGIKNKIEPQAPVDKDLYELPPEEAASIPQTPTQLSDVIDRLEADHEYLTEGGVFTNDLIETWISFKRENEIEPVNIRPHPYEFALYYDV | soluble |
| MSLKKIKRITAYQVDLPLHEGSYNWSGGKTVNIFDSTIVAIETDDGLIGYGECCPLGPFYLPSYAEGVRAGIKELGPHLIGLDATDHSYINMVMDQCLKGHPYVKSPIDIACWDIKGKAANMPISKLLGGTYDEDFVLYRAISQNEPDAMASNVKKYRDEGYRRFQLKVGGSPNEDIERIRSVASKLEDGDKLIADANTGWLAHEALRVIRAVNDIDVYIEQPCQSYEECLSVRQKTTHPFILDESVKNIGVLVRGYHDKAMDAVNIKISKFGGITKAVLARDLCTELGIAMTIEDSWGGDIVTATIAHLAHSTQPKLLFTATDFNSYVTVHIADGAPQRNNGRMKSSGEGHHHHHH | not soluble |
| MSLNQNPVEEGQKFPLTIRRMGINGEGIGYFKKAVVFVPGAITGEEVVVEAVKVRDRFTEAKLNKIRKKSPNRVTAPCPVYEACGGCQLQHVAYSAQLELKRDIVIQSIEKHTKIDPTKLKIRPTIGMEDPWRYRNKSQFQTRMVGSGQVETGLFGANSHQLVPIEDCIVQQPVTIKVTNFVRDLLEKYGVPIYDEKAGSGIVRTIVVRTGVKTGETQLVFITNSKKLPKKREMLAEIEAALPEVTSIMQNVNQAKSSLIFGDETFLLAGKESIEEKLMELEFDLSARAFFQLNPFQTERLYQEVEKALVLTGSETLVDAYCGVGTIGQAFAGKVKEVRGMDIIPESIEDAKRNAEKNGIENVYYEVGKAEDVLPKWVKEGFRPDAVIVDPPRSGCDQGLIKSLLDVEAKQLVYVSCNPSTLARDLALLAKKYRIRYMQPVDMFPQTAHVETVVLLQLKDKEGHHHHHH | soluble |
| MGELTDALLGKGALKTRFGSLLGQGDWGGVRVSQVEVRWVIFCLLHWLHVNLPVTEYLALDVLFPLAIVQKHSIL | not soluble |
| MGSDKIHHHHHHMSETEPTSEQPHIAITGGAGYIGSRVIYELQQAHPDWEITAIDNFYLGTVQSVGDVDIEHVDIRNRDRLEAALDGADVVMHLAAVSGVDDCEEKQDLAYEVNVQGTDNVAWFCRKTGAALIFPFSMAVIGDPQEFPITVDHPRDPLNWYGRTKLLNERDVETYADGAFPAHQFMISNLYGSHEIDGQTVSKGTVINFFVNRALAGETLTVYEPGTQSRNFIHVKDVARAYVDSCERLLEQLDRGETGVEKYEIASDEDPSVHTVAKLVRDIAADIADIDADVELVENPRGDDETLVDSFTVDTGRTTAALGWTPEHDVESAIRTALESANT | not soluble |
| MSLSGKENPNICFLPTATGDADEVIERFYNAKLSENVTHFPLFKFDAGWKETLFEQDIIYVGGGNTRSMLAIWREWGIDRILKQCYEQGIIICGMSAGAICWFEFAVTDSDPEAYQVMRCLGLIDGLAAAHFSHVGEKFEVFQAFARSQPSITCYGIHDYAALHFVDGKLLATVTSFPDAGVLVKTGNDENILRGEGHHHHHH | not soluble |
| MGSDKIHHHHHHMNLKSGYPFWSIRNGLMRPYPRLEQDTHCEVAIIGGGVTAALIAHELLRHGHEVVVIEQREIGWGSTSASTALLQYEIDTPMVDLAAQYGMPAAALAYGACAKAILDLQELCDGLGGCDFTRQDSLYYASRARDLKDLQRELDARKTHALPVEWIAGDALWHDYGVRSEGAILSRLAASVDPYRLCYRLFAECEQYGGRIYDRSPIATLQAHDQHVDLRTQDGVNVRARHVIMAAGYGNQQWLSQRVARNRSSYAFVTDPLHDTDVGALKHTMMWETARPYLYVRTTADGRVVAGGEDDSIDIPARRDARVLSKMDTLLKKIAKVMPDVRLRPVFAWGGTFAETADGLPFFGTHSEHGPRVAFAMAYGGNGITYSAIGAGLLRAQLEGRAYPLSDLFGFSRLG | not soluble |
| AIARTDSSKMTDVESGVANFASSARAGRRNALPDIQSSAATDGTSDLPLKLEALSVKEDAKEKDEKTTQDQLEKPQNEEK | soluble |
| GFQSNAMKQETPITLHVKSVIEDDGNQEVIEFRTTGFYYVKQNKVYLSYYEEHDLGKVKTIVKVSEGEVLVMRSGAVKMNQRFVTGASTIAKYKMSFGELELKTSTKSIQSDLDEEKGRISIAYDMHVGDEQEHLHNMTITYEGGTHA | soluble |
| MGSDKIHHHHHHMSATSLYRLFAPQIEFLSPAEKQVFFYIDNHISTIEKMSLTSLAESTNVSTTTVIRMCHKLKLSGFSELKFLLHSDKTETKPLSKDYSSTFLEKIRLGIEQLPKKEIEQVATRIAYAPKIYIACLGMTKTLGEYFSKSLVTSKKNVVFTYDSFIIDILPQIVERDDLIIIISESGGTENTLSLAEHLKYNLSNVIAIVNNPNAQISQYVETIIYASSEEFDEDSFKHHHAPLLIVIDLILNIFEQQKKLI | not soluble |
| MSLATLLHIDSSVFPSAASASRAVAETFRTAWQEQHPDGTVIYRDLSANPVPHITADAHTAGFADPATHTPGQAAAFAEREKLIAELEQADAVLIGAPMYNYAIPSTLKAWLDNVILMGRTAANENSKVTGTPVTVIASRGGSYAPGTPREPYEYVQNYLKAVLSDALGLELEFIVPELTMAAHNPAMSELVPLAEASRAKAHEDAAAKAKELADRFAAEGHHHHHH | soluble |
| MKNNIRFDLSDYLIHFFRDVNLETGSHIYLPEHCGFNNQHHACFIDAKYLLRLSLRSHKIFSSWSYRNGQRTVYGDSPVVCFTDMPIAAYLETGVRRLERNEKIGLYAIVLPKEQMFNYGARPVIYGLDQHNNARCSQGRNGERILDETALPLIEQYRYVTYVPGKIDWTHEREWRWPYRGDINNFLNHIKEYGIPENIESTPGFDFRSSEISGAGIIVPFAEDIPTVAHDILTLIDRGVIGRNTFKFIIAVESLQSWTQLSEPGALLSCINDNTFEFESFFDLSASKVKNYADSINDYVSELYSKKDFLNDSYAMEFGNAWVWIHDNQSQVVRALLQAGMIKVNKEGRYLLDVNLASVDWPLRRKEAFASHVAGWLKHRFDIEAGRYSVRGKDDYDAIPSYETPLKDQHPFYNHTVNVDW | not soluble |
| AVYGIDAMNPSSRDDFTEFGKLLKDKITQYEKSLYYASFLEVLVRDVCISLEIDDLKKITNSLTVLCSEKQKQEKQSKAK | soluble |
| MGSDKIHHHHHHVKIALDPTPFHHSHTLLEFPRVVADLGYKYMQMTPHADFIPFYNHPKADDELVGQLNKACKDVGIEIASVLPVLRWSGPDEDAREAAVRYWKRVIQITVDLGVSTINTEFSGRPEKAEESERAFYRSMEELLPIIEREGLDLLIDPHPDDFVEEGLAAIRVIRGLNSKNVGLVYVASHSFHMKNAPLDIMRAAGDKLRLVHVADTMNHHASHGLRYITNPPGNPVRVHQHLKIGDGDVNWEEFFGGLQEIGFLDREDTVMVSSVFAEDENAAEVSRYQLVTMNNYIATAR | not soluble |
